T1: EsCas13d, nuclease-dead (Eubacterium siraeum, UniProt B0MS50, R295A;H300A;R849A;H854A)
T1 sequence: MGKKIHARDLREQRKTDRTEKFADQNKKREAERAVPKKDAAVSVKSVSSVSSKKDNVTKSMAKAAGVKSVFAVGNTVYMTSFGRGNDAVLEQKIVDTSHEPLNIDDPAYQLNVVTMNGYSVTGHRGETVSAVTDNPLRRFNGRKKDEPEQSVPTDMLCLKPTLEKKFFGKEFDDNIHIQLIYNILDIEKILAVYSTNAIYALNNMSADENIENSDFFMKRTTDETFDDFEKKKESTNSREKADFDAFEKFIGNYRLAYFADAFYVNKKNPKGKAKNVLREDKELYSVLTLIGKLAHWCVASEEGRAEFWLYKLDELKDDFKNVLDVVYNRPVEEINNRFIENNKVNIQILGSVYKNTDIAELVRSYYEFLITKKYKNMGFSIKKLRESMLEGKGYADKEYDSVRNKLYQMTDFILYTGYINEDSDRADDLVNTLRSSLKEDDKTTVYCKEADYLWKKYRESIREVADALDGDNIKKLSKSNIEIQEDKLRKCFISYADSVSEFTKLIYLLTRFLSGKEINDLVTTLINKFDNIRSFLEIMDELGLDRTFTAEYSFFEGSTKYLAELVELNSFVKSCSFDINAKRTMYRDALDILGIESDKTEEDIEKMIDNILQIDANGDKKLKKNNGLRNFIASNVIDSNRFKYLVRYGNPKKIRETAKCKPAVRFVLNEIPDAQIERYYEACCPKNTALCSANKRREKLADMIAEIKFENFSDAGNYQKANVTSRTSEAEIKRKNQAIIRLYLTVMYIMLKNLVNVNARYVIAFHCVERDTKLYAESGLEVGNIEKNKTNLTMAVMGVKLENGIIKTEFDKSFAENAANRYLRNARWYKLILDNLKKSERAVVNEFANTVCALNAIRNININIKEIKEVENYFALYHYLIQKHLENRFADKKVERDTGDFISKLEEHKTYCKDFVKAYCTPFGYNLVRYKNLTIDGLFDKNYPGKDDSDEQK


target: T1, EsCas13d, nuclease-dead; assay: crRNA (strand 1, pre-loaded); Mg2+; 40 mM Tris-HCl pH 7.5, 150 mM NaCl, 6 mM MgCl2, 1 mM DTT, 0.1% Tween-20, 0.2 mg/ml BSA; 25 C; 10 min per concentration, then washed; conditions: tags: His6-TwinStrep-SUMO cleaved; N-terminal SNAP kept (SNAP-Surface 488); label: 3' end held by stalled T7 RNA polymerase

Binder | Kd
target 1 MT 5'PFS GAC 3'PFS UAU (mixed) RNA 1: CACCCGUGCAAAAAUGCAGGGGUCUAAAACUGAGCGGAUAACCUCUCUAUGG RNA 2: GGGAAUGGAUCCACAUCUACGAAUUCGACCCAUAGAGAGGUUAUCCGCUCAUAUAGAUCGGAAGAGCACACGU | 19 ± 6 nM
target 1 MT 5'PFS GCG 3'PFS AAC (mixed) RNA 1: CACCCGUGCAAAAAUGCAGGGGUCUAAAACUGAGCGGAUAACCUCUCUAUGG RNA 2: GGGAAUGGAUCCACAUCUACGAAUUCGCGCCAUAGAGAGGUUAUCCGCUCAAACAGAUCGGAAGAGCACACGU | 32 ± 15 nM
target 1 MT 5'PFS GUC 3'PFS AGA (mixed) RNA 1: CACCCGUGCAAAAAUGCAGGGGUCUAAAACUGAGCGGAUAACCUCUCUAUGG RNA 2: GGGAAUGGAUCCACAUCUACGAAUUCGUCCCAUAGAGAGGUUAUCCGCUCAAGAAGAUCGGAAGAGCACACGU | 19.5 ± 3.85 nM
target 1 MT 5'PFS GUC 3'PFS AGG (mixed) RNA 1: CACCCGUGCAAAAAUGCAGGGGUCUAAAACUGAGCGGAUAACCUCUCUAUGG RNA 2: GGGAAUGGAUCCACAUCUACGAAUUCGUCCCAUAGAGAGGUUAUCCGCUCAAGGAGAUCGGAAGAGCACACGU | 46 ± 9 nM
target 1 MT 5'PFS GUA 3'PFS UUA (mixed) RNA 1: CACCCGUGCAAAAAUGCAGGGGUCUAAAACUGAGCGGAUAACCUCUCUAUGG RNA 2: GGGAAUGGAUCCACAUCUACGAAUUCGUACCAUAGAGAGGUUAUCCGCUCAUUAAGAUCGGAAGAGCACACGU | 9.85 ± 1.15 nM
target 1 MT 5'PFS UUA 3'PFS UAC (mixed) RNA 1: CACCCGUGCAAAAAUGCAGGGGUCUAAAACUGAGCGGAUAACCUCUCUAUGG RNA 2: GGGAAUGGAUCCACAUCUACGAAUUCUUACCAUAGAGAGGUUAUCCGCUCAUACAGAUCGGAAGAGCACACGU | 35 ± 7 nM
target 1 C7A,U11G (mixed) RNA 1: CACCCGUGCAAAAAUGCAGGGGUCUAAAACUGAGCGGAUAACCUCUCUAUGG RNA 2: GGGAAUGGAUCCACAUCUACGAAUUCGUACCAUAGAGAGGGUAUACGCUCACCGAGAUCGGAAGAGCACACGU | 13.4 ± 0.6 nM
target 1 MT 5'PFS UUA 3'PFS CUC (mixed) RNA 1: CACCCGUGCAAAAAUGCAGGGGUCUAAAACUGAGCGGAUAACCUCUCUAUGG RNA 2: GGGAAUGGAUCCACAUCUACGAAUUCUUACCAUAGAGAGGUUAUCCGCUCACUCAGAUCGGAAGAGCACACGU | 16 ± 4 nM
target 1 MT 5'PFS GGC 3'PFS CCU (mixed) RNA 1: CACCCGUGCAAAAAUGCAGGGGUCUAAAACUGAGCGGAUAACCUCUCUAUGG RNA 2: GGGAAUGGAUCCACAUCUACGAAUUCGGCCCAUAGAGAGGUUAUCCGCUCACCUAGAUCGGAAGAGCACACGU | 15.9 ± 4.7 nM
target 1 MT 5'PFS UUA 3'PFS CUA (mixed) RNA 1: CACCCGUGCAAAAAUGCAGGGGUCUAAAACUGAGCGGAUAACCUCUCUAUGG RNA 2: GGGAAUGGAUCCACAUCUACGAAUUCUUACCAUAGAGAGGUUAUCCGCUCACUAAGAUCGGAAGAGCACACGU | ~47 nM
target 1 MT 5'PFS GCG 3'PFS AAU (mixed) RNA 1: CACCCGUGCAAAAAUGCAGGGGUCUAAAACUGAGCGGAUAACCUCUCUAUGG RNA 2: GGGAAUGGAUCCACAUCUACGAAUUCGCGCCAUAGAGAGGUUAUCCGCUCAAAUAGAUCGGAAGAGCACACGU | 33.5 ± 9.5 nM
target 1 MT 5'PFS GUA 3'PFS UUC (mixed) RNA 1: CACCCGUGCAAAAAUGCAGGGGUCUAAAACUGAGCGGAUAACCUCUCUAUGG RNA 2: GGGAAUGGAUCCACAUCUACGAAUUCGUACCAUAGAGAGGUUAUCCGCUCAUUCAGAUCGGAAGAGCACACGU | 9.25 ± 1.1 nM
target 1 MT 5'PFS GUA 3'PFS UUG (mixed) RNA 1: CACCCGUGCAAAAAUGCAGGGGUCUAAAACUGAGCGGAUAACCUCUCUAUGG RNA 2: GGGAAUGGAUCCACAUCUACGAAUUCGUACCAUAGAGAGGUUAUCCGCUCAUUGAGAUCGGAAGAGCACACGU | 8.11 ± 0.52 nM
target 1 MT 5'PFS UUA 3'PFS UAA (mixed) RNA 1: CACCCGUGCAAAAAUGCAGGGGUCUAAAACUGAGCGGAUAACCUCUCUAUGG RNA 2: GGGAAUGGAUCCACAUCUACGAAUUCUUACCAUAGAGAGGUUAUCCGCUCAUAAAGAUCGGAAGAGCACACGU | 21.5 ± 7 nM
target 1 MT 5'PFS GUC 3'PFS AGC (mixed) RNA 1: CACCCGUGCAAAAAUGCAGGGGUCUAAAACUGAGCGGAUAACCUCUCUAUGG RNA 2: GGGAAUGGAUCCACAUCUACGAAUUCGUCCCAUAGAGAGGUUAUCCGCUCAAGCAGAUCGGAAGAGCACACGU | 9.1 ± 1.75 nM
target 1 MT 5'PFS UUA 3'PFS CUG (mixed) RNA 1: CACCCGUGCAAAAAUGCAGGGGUCUAAAACUGAGCGGAUAACCUCUCUAUGG RNA 2: GGGAAUGGAUCCACAUCUACGAAUUCUUACCAUAGAGAGGUUAUCCGCUCACUGAGAUCGGAAGAGCACACGU | 14.9 ± 2.6 nM
target 1 insA 3' of 8,insA 3' of 6 (mixed) RNA 1: CACCCGUGCAAAAAUGCAGGGGUCUAAAACUGAGCGGAUAACCUCUCUAUGG RNA 2: GGGAAUGGAUCCACAUCUACGAAUUCGUACCAUAGAGAGGUUAUACCAGCUCACCGAGAUCGGAAGAGCACACGU | 13.8 ± 0.7 nM
target 1 MT 5'PFS GCG 3'PFS CCG (mixed) RNA 1: CACCCGUGCAAAAAUGCAGGGGUCUAAAACUGAGCGGAUAACCUCUCUAUGG RNA 2: GGGAAUGGAUCCACAUCUACGAAUUCGCGCCAUAGAGAGGUUAUCCGCUCACCGAGAUCGGAAGAGCACACGU | 12.4 ± 3.4 nM
target 1 MT 5'PFS GGG 3'PFS ACU (mixed) RNA 1: CACCCGUGCAAAAAUGCAGGGGUCUAAAACUGAGCGGAUAACCUCUCUAUGG RNA 2: GGGAAUGGAUCCACAUCUACGAAUUCGGGCCAUAGAGAGGUUAUCCGCUCAACUAGAUCGGAAGAGCACACGU | 14.2 ± 1.3 nM
target 1 MT 5'PFS CCG 3'PFS UCC (mixed) RNA 1: CACCCGUGCAAAAAUGCAGGGGUCUAAAACUGAGCGGAUAACCUCUCUAUGG RNA 2: GGGAAUGGAUCCACAUCUACGAAUUCCCGCCAUAGAGAGGUUAUCCGCUCAUCCAGAUCGGAAGAGCACACGU | 5.6 ± 2.35 nM
target 1 MT 5'PFS GUC 3'PFS CAU (mixed) RNA 1: CACCCGUGCAAAAAUGCAGGGGUCUAAAACUGAGCGGAUAACCUCUCUAUGG RNA 2: GGGAAUGGAUCCACAUCUACGAAUUCGUCCCAUAGAGAGGUUAUCCGCUCACAUAGAUCGGAAGAGCACACGU | 24.5 ± 9 nM
target 1 MT 5'PFS GGU 3'PFS CCU (mixed) RNA 1: CACCCGUGCAAAAAUGCAGGGGUCUAAAACUGAGCGGAUAACCUCUCUAUGG RNA 2: GGGAAUGGAUCCACAUCUACGAAUUCGGUCCAUAGAGAGGUUAUCCGCUCACCUAGAUCGGAAGAGCACACGU | 75.5 ± 30.5 nM
target 1 MT 5'PFS AUA 3'PFS ACU (mixed) RNA 1: CACCCGUGCAAAAAUGCAGGGGUCUAAAACUGAGCGGAUAACCUCUCUAUGG RNA 2: GGGAAUGGAUCCACAUCUACGAAUUCAUACCAUAGAGAGGUUAUCCGCUCAACUAGAUCGGAAGAGCACACGU | 15.5 ± 4 nM
target 1 MT 5'PFS GCG 3'PFS CCU (mixed) RNA 1: CACCCGUGCAAAAAUGCAGGGGUCUAAAACUGAGCGGAUAACCUCUCUAUGG RNA 2: GGGAAUGGAUCCACAUCUACGAAUUCGCGCCAUAGAGAGGUUAUCCGCUCACCUAGAUCGGAAGAGCACACGU | 18.5 ± 6.5 nM
target 1 MT 5'PFS GUU 3'PFS ACU (mixed) RNA 1: CACCCGUGCAAAAAUGCAGGGGUCUAAAACUGAGCGGAUAACCUCUCUAUGG RNA 2: GGGAAUGGAUCCACAUCUACGAAUUCGUUCCAUAGAGAGGUUAUCCGCUCAACUAGAUCGGAAGAGCACACGU | 15.8 ± 1.8 nM
target 1 MT 5'PFS GUA 3'PFS UUU (mixed) RNA 1: CACCCGUGCAAAAAUGCAGGGGUCUAAAACUGAGCGGAUAACCUCUCUAUGG RNA 2: GGGAAUGGAUCCACAUCUACGAAUUCGUACCAUAGAGAGGUUAUCCGCUCAUUUAGAUCGGAAGAGCACACGU | 8.21 ± 0.5 nM
target 1 MT 5'PFS GUC 3'PFS AGU (mixed) RNA 1: CACCCGUGCAAAAAUGCAGGGGUCUAAAACUGAGCGGAUAACCUCUCUAUGG RNA 2: GGGAAUGGAUCCACAUCUACGAAUUCGUCCCAUAGAGAGGUUAUCCGCUCAAGUAGAUCGGAAGAGCACACGU | 20.6 ± 2.7 nM
target 1 MT 5'PFS CCG 3'PFS UCG (mixed) RNA 1: CACCCGUGCAAAAAUGCAGGGGUCUAAAACUGAGCGGAUAACCUCUCUAUGG RNA 2: GGGAAUGGAUCCACAUCUACGAAUUCCCGCCAUAGAGAGGUUAUCCGCUCAUCGAGAUCGGAAGAGCACACGU | 3.4 ± 1.3 nM

— paper PMC10786891, “Massively parallel profiling of RNA-targeting CRISPR-Cas13d”
